Reference: the RNAGym collection of RNA variant scans (doi:10.1093/molbev/msab373)

B1: Azoarcus group I ribozyme (parent)
chain: GUGCCUUGCGCCGGGAAACCACGCAAGGGAUGGUGUCAAAUUCGGCGAAACCUAAGCGCCCGCCCGGGCGUAUGGCAACGCCGAGCCAAGCUUCGGCGCCUGCGCCGAUGAAGGUGUAGAGACUAGACGGCACCCACCUAAGGCAAACGCUAUGGUGAAGGCAUAGUCCAGGGAGUGGCGAAAGUCACACAAACCGG

Variants of: B1
Assay: reverse-splicing fitness (ratio to wild type); higher = more active; in vitro selection; Mg2+ level not given
Outline: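 An in vitro group I ribozyme library with randomized positions was T7-transcribed and gel-purified. In triplicate, 10 pmol RNA in EPPS pH 7.5 was reacted with 50 pmoles of a 30-nt RNA substrate for 1 h at 37 °C across several added MgCl2 levels (1–48 mM), then stopped with EDTA. Products were reverse transcribed from a substrate-complementary primer, PCR-amplified and sequenced (HiSeq 4000). Fitness is a variant's read proportion after selection over that before, normalised to wild type.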

Row | Variant | reverse-splicing fitness
1 | C82A A111G A120C A145C C150U U176G | 0.00644
2 | C82A A111G A120C A145C C150U U176A | 0.0118
3 | C82A A111G A120C A145C C150U U176C | 0.018
4 | C82A A111G A120C A145C C150U C169G | 0.00854
5 | C82A A111G A120C A145C C150U C169U | 0.0104
6 | C82A A111G A120C A145C C150U C169A | 0.00838
7 | C82A A111G A120C C150A U176C | 0.0223
8 | C82A A111G A120C C150A U176A | 0.0133
9 | C82A A111G A120C C150A U176G | 0.0115
10 | C82A A111G A120G A145C C150A C169A U176G | 0.00578
11 | C82A A111G A120G A145C C150A C169A U176C | 0.00609
12 | C82A A111G A120G A145C C150A C169A U176A | 0.0118
13 | C82A A111G A120C A145G C169U U176C | 0.0146
14 | C82A A111G A120C A145G C169U U176A | 0.0149
15 | C82A A111G A120C A145G C169U U176G | 0.00528
16 | C82A A111G A120C A145C C150G C169U U176G | 0.00527
17 | C82A A111G A120C A145C C150G C169U U176A | 0.00566
18 | C82A A111G A120C A145C C150G C169U U176C | 0.00986
19 | C82A A111C A145U C169U | 0.0124
20 | C82A A111G A120C C150G C169G U176G | 0.00561
21 | C82A A111G A120C C150G C169G U176C | 0.00485

Row | Variant | reverse-splicing fitness
22 | C82A A111G A120C C150G C169G U176A | 0.00731
23 | C82A A111G A120C C150U C169U | 0.0116
24 | C82A A111G A120C C150U C169A | 0.00986
25 | C82A A111G A120C C150U C169G | 0.00852
26 | C82A A111G A120C A145C C150G U176A | 0.00522
27 | C82A A111G A120C A145C C150G U176G | 0.00265
28 | C82A A111G A120C A145C C150G U176C | 0.00712
29 | C82A A111G A120C A145C C150G C169G | 0.00705
30 | C82A A111G A120C A145C C150G C169U | 0.009
31 | C82A A111G A120C A145C C150G C169A | 0.0102
32 | C82A A111C A145U C169U U176G | 0.00718
33 | C82A A111C A145U C169U U176C | 0.0144
34 | C82A A111C A145U C169U U176A | 0.0149
35 | C82A A111G A120G A145C C150A | 0.0077
36 | C82A A111C C150G C169U U176C | 0.0137
37 | C82A A111C C150G C169U U176G | 0.00629
38 | C82A A111C C150G C169U U176A | 0.0073
39 | C82A A111G A120C A145G C150G C169U U176C | 0.0117
40 | C82A A111G A120C A145G C150G C169U U176A | 0.0129
41 | C82A A111G A120C A145G C150G C169U U176G | 0.00802
42 | C82A A111G A120C A145G C150A C169U U176A | 0.0153

Row | Variant | reverse-splicing fitness
43 | C82A A111G A120C A145G C150A C169U U176G | 0.00842
44 | C82A A111G A120C A145G C150A C169U U176C | 0.0154
45 | C82A A111C C150G C169G U176A | 0.00718
46 | C82A A111C C150G C169G U176C | 0.00508
47 | C82A A111C C150G C169G U176G | 0.00585
48 | C82A A111C C169A U176C | 0.0237
49 | C82A A111C C169A U176A | 0.0171
50 | C82A A111C C169A U176G | 0.00874
51 | C82A A111G A120C C150U C169U U176C | 0.0125
52 | C82A A111G A120C C150U C169U U176A | 0.014
53 | C82A A111G A120C C150U C169U U176G | 0.00647
54 | C82A A111C C169G U176C | 0.0237
55 | C82A A111C C169G U176A | 0.0177
56 | C82A A111C C169G U176G | 0.00734
57 | C82A A111G A120C A145C C169U U176C | 0.0138
58 | C82A A111G A120C A145C C169U U176G | 0.00478
59 | C82A A111G A120C A145C C169U U176A | 0.0161
60 | C82A A111G A120C C169A U176A | 0.0173
61 | C82A A111G A120C C169A U176G | 0.00575
62 | C82A A111G A120C C169A U176C | 0.0223
63 | C82A A111G A120C C169U U176G | 0.00535

Row | Variant | reverse-splicing fitness
64 | C82A A111G A120C C169U U176A | 0.016
65 | C82A A111G A120C C169U U176C | 0.0138
66 | C82A A111G A120C A145G U176C | 0.0327
67 | C82A A111G A120C A145G U176A | 0.0183
68 | C82A A111G A120C A145G U176G | 0.00889
69 | C82A A111G A120C A145G C150U C169U U176G | 0.00671
70 | C82A A111G A120C A145G C150U C169U U176A | 0.0141
71 | C82A A111G A120C A145G C150U C169U U176C | 0.0148
72 | C82A A111G A120C A145U C150A C169U U176G | 0.00664
73 | C82A A111G A120C A145U C150A C169U U176C | 0.0123
74 | C82A A111G A120C A145U C150A C169U U176A | 0.0152
75 | C82A A111G A120C C169U | 0.0139
76 | C82A A111G A120C C169G | 0.00888
77 | C82A A111G A120C C169A | 0.00875
78 | C82A A111G A120C A145U C150G C169U U176C | 0.0102
79 | C82A A111G A120C A145U C150G C169U U176G | 0.00564
80 | C82A A111G A120C A145U C150G C169U U176A | 0.00666
81 | C82A A111G A120C A145U C150U C169A U176C | 0.0127
82 | C82A A111G A120C A145U C150U C169A U176A | 0.0157
83 | C82A A111G A120C A145U C150U C169A U176G | 0.00591
